Patent US20180155451A1 (published 2018)

B1: GpH7-B3 variant S298_11K/GpL16-k0 (antibody, human IgG1, kappa)
heavy: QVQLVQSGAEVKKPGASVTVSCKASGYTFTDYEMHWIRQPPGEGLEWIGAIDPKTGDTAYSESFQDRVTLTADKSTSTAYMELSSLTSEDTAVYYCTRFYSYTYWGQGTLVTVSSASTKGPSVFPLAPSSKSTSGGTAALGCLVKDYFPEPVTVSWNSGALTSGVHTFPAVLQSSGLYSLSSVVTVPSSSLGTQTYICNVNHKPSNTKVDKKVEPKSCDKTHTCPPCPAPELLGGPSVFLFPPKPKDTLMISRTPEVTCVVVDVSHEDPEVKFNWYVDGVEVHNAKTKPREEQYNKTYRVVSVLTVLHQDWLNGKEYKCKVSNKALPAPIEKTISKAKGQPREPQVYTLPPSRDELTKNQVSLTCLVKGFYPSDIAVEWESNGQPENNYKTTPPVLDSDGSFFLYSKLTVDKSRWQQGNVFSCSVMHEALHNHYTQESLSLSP
light: DIVMTQSPLSLPVTPGEPASISCQASESLVHSNRNTYLHWYLQKPGQSPQLLIYKVSNRFSGVPDRFSGSGSGTDFTLKISRVEAEDVGVYYCSQNTHVPPTFGQGTKVEIERTVAAPSVFIFPPSDEQLKSGTASVVCLLNNFYPREAKVQWKVDNALQSGNSQESVTEQDSKDSTYSLSSTLTLSKADYEKHKVYACEVTHQGLSSPVTKSFNRGEC
notes: mutation in both H chains; also called Ho Ab S298_11K; S298K
B2: GpH7-B3 variant S239_09D/GpL16-k0 (antibody, human IgG1, kappa)
heavy: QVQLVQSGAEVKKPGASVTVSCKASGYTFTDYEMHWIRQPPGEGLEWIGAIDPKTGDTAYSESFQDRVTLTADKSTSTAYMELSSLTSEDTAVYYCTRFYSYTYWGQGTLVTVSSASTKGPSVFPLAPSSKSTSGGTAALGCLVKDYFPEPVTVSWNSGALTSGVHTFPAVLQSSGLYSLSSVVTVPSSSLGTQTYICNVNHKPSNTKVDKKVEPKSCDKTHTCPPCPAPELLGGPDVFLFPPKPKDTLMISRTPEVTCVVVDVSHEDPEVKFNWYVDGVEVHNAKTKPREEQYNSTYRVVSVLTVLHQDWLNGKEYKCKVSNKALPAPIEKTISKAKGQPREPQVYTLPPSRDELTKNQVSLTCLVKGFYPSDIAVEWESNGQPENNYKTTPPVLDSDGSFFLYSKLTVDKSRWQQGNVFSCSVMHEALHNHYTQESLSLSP
light: B1 light
notes: mutation in both H chains; also called Ho Ab S239_09D; S239D
B3: GpH7-B3 variant S239_14T/GpL16-k0 (antibody, human IgG1, kappa)
heavy: not shown
light: B1 light
notes: mutation in both H chains; also called Ho Ab S239_14T; S239T
B4: GpH7-B3 variant S239_18N/GpL16-k0 (antibody, human IgG1, kappa)
heavy: not shown
light: B1 light
notes: mutation in both H chains; also called Ho Ab S239_18N; S239N
B5: GpH7-B3 variant S239_19Q/GpL16-k0 (antibody, human IgG1, kappa)
heavy: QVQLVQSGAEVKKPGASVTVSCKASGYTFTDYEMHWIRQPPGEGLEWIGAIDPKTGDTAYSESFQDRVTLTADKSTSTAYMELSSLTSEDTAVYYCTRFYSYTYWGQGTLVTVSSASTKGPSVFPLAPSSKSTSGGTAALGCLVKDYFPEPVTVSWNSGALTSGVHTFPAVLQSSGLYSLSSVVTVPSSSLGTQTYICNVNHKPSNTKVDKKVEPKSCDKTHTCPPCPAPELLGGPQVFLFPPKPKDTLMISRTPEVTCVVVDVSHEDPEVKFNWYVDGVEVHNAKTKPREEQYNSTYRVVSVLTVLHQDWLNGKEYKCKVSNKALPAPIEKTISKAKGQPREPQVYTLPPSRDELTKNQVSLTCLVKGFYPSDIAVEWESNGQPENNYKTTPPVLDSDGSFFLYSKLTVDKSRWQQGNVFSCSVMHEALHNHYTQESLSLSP
light: B1 light
notes: mutation in both H chains; also called Ho Ab S239_19Q; S239Q
B6: GpH7-B3 variant S267_01G/GpL16-k0 (antibody, human IgG1, kappa)
heavy: not shown
light: B1 light
notes: mutation in both H chains; also called Ho Ab S267_01G; S267G
B7: GpH7-B3 variant S267_02A/GpL16-k0 (antibody, human IgG1, kappa)
heavy: not shown
light: B1 light
notes: mutation in both H chains; also called Ho Ab S267_02A; S267A
B8: GpH7-B3 variant S267_03V/GpL16-k0 (antibody, human IgG1, kappa)
heavy: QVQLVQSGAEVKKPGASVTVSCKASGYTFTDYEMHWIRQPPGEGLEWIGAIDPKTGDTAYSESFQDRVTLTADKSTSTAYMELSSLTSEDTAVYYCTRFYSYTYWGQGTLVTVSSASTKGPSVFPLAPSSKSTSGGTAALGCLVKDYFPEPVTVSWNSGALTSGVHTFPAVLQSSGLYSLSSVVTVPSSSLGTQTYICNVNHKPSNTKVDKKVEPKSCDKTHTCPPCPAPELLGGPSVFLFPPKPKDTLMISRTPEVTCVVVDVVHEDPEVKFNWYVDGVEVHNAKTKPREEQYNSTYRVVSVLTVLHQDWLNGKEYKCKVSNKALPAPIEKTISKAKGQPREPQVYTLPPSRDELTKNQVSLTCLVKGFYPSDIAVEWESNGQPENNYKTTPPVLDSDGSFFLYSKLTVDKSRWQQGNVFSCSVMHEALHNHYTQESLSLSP
light: B1 light
notes: mutation in both H chains; also called Ho Ab S267_03V; S267V
B9: GpH7-B3 variant S267_08L/GpL16-k0 (antibody, human IgG1, kappa)
heavy: not shown
light: B1 light
notes: mutation in both H chains; also called Ho Ab S267_08L; S267L
B10: GpH7-B3 variant S267_09D/GpL16-k0 (antibody, human IgG1, kappa)
heavy: not shown
light: B1 light
notes: mutation in both H chains; also called Ho Ab S267_09D; S267D
B11: GpH7-B3 variant S267_16H/GpL16-k0 (antibody, human IgG1, kappa)
heavy: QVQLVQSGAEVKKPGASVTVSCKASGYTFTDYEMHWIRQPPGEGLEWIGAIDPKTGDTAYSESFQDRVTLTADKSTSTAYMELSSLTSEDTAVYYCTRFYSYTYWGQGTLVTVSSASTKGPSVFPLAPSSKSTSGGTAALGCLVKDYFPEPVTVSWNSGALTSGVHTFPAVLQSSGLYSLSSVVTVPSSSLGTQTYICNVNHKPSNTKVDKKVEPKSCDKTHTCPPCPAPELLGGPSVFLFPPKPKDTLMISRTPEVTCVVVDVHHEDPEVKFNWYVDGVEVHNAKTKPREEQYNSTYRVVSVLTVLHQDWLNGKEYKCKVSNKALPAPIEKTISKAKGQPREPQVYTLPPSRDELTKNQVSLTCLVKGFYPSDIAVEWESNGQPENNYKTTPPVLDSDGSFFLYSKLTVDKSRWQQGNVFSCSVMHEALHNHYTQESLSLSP
light: B1 light
notes: mutation in both H chains; also called Ho Ab S267_16H; S267H
B12: GpH7-B3 variant S298_01G/GpL16-k0 (antibody, human IgG1, kappa)
heavy: not shown
light: B1 light
notes: mutation in both H chains; also called Ho Ab S298_01G; S298G
B13: GpH7-B3 variant S298_02A/GpL16-k0 (antibody, human IgG1, kappa)
heavy: not shown
light: B1 light
notes: mutation in both H chains; also called Ho Ab S298_02A; S298A
B14: GpH7-B3 variant S298_03V/GpL16-k0 (antibody, human IgG1, kappa)
heavy: not shown
light: B1 light
notes: mutation in both H chains; also called Ho Ab S298_03V; S298V
B15: GpH7-B3 variant S298_04F/GpL16-k0 (antibody, human IgG1, kappa)
heavy: not shown
light: B1 light
notes: mutation in both H chains; also called Ho Ab S298_04F; S298F
B16: GpH7-B3 variant S298_06M/GpL16-k0 (antibody, human IgG1, kappa)
heavy: not shown
light: B1 light
notes: mutation in both H chains; also called Ho Ab S298_06M; S298M
B17: GpH7-B3 variant S298_07I/GpL16-k0 (antibody, human IgG1, kappa)
heavy: not shown
light: B1 light
notes: mutation in both H chains; also called Ho Ab S298_07I; S298I
B18: GpH7-B3 variant S298_08L/GpL16-k0 (antibody, human IgG1, kappa)
heavy: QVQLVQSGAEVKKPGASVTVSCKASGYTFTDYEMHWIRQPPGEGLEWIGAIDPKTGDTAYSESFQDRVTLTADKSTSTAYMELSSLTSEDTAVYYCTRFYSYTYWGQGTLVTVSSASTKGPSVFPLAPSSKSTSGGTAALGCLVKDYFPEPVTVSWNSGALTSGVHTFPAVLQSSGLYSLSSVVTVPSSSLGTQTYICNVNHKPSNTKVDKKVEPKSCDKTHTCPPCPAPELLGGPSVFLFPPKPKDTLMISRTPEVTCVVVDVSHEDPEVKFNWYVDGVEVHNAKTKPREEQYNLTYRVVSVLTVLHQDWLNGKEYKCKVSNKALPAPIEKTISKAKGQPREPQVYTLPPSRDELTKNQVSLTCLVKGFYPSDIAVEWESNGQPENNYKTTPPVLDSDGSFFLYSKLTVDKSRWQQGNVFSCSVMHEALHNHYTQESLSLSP
light: B1 light
notes: mutation in both H chains; also called Ho Ab S298_08L; S298L
B19: GpH7-B3 variant S298_10E/GpL16-k0 (antibody, human IgG1, kappa)
heavy: not shown
light: B1 light
notes: mutation in both H chains; also called Ho Ab S298_10E; S298E
B20: GpH7-B3 variant S298_12R/GpL16-k0 (antibody, human IgG1, kappa)
heavy: not shown
light: B1 light
notes: mutation in both H chains; also called Ho Ab S298_12R; S298R
B21: GpH7-B3 variant S298_14T/GpL16-k0 (antibody, human IgG1, kappa)
heavy: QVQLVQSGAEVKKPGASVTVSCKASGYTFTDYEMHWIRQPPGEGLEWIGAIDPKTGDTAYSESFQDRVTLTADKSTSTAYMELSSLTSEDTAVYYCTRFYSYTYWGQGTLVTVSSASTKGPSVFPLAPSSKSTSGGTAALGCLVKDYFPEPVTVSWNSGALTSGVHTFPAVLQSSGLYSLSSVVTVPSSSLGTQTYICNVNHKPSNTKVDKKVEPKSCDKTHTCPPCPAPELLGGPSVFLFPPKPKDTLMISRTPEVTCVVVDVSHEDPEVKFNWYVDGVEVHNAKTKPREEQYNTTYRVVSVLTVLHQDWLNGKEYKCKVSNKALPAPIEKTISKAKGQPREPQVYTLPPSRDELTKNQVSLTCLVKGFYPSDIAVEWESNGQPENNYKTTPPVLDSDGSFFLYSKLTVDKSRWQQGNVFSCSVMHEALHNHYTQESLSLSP
light: B1 light
notes: mutation in both H chains; also called Ho Ab S298_14T; S298T
B22: GpH7-B3 variant S298_15Y/GpL16-k0 (antibody, human IgG1, kappa)
heavy: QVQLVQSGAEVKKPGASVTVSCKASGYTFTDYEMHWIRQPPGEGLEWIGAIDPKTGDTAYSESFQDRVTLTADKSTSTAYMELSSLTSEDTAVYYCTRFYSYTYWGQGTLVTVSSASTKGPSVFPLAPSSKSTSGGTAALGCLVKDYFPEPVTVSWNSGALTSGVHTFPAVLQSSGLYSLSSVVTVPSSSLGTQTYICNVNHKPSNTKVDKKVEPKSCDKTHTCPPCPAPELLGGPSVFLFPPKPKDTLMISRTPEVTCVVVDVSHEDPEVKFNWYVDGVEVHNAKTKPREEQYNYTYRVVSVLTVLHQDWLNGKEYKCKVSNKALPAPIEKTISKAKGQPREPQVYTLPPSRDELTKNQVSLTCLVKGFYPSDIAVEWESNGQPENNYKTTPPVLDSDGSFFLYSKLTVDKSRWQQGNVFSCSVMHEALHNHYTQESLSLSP
light: B1 light
notes: mutation in both H chains; also called Ho Ab S298_15Y; S298Y
B23: GpH7-B3 variant S298_16H/GpL16-k0 (antibody, human IgG1, kappa)
heavy: not shown
light: B1 light
notes: mutation in both H chains; also called Ho Ab S298_16H; S298H
B24: GpH7-B3 variant S298_18N/GpL16-k0 (antibody, human IgG1, kappa)
heavy: not shown
light: B1 light
notes: mutation in both H chains; also called Ho Ab S298_18N; S298N
B25: GpH7-B3 variant S298_19Q/GpL16-k0 (antibody, human IgG1, kappa)
heavy: not shown
light: B1 light
notes: mutation in both H chains; also called Ho Ab S298_19Q; S298Q
B26: GpH7-B3 variant S298_20W/GpL16-k0 (antibody, human IgG1, kappa)
heavy: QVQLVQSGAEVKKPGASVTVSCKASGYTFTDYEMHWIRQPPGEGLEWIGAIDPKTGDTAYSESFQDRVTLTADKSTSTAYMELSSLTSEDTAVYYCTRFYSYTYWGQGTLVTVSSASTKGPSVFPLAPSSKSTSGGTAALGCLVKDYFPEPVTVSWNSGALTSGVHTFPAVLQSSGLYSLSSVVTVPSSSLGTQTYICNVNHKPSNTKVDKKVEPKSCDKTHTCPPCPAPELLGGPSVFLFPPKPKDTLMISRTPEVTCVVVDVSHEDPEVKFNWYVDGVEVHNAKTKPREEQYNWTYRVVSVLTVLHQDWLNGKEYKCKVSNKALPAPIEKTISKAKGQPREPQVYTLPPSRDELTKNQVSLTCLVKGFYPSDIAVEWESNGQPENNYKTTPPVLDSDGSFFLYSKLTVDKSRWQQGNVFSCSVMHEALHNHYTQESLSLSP
light: B1 light
notes: mutation in both H chains; also called Ho Ab S298_20W; S298W
B27: GpH7-B3 variant S324_02A/GpL16-k0 (antibody, human IgG1, kappa)
heavy: not shown
light: B1 light
notes: mutation in both H chains; also called Ho Ab S324_02A; S324A
B28: GpH7-B3 variant S324_03V/GpL16-k0 (antibody, human IgG1, kappa)
heavy: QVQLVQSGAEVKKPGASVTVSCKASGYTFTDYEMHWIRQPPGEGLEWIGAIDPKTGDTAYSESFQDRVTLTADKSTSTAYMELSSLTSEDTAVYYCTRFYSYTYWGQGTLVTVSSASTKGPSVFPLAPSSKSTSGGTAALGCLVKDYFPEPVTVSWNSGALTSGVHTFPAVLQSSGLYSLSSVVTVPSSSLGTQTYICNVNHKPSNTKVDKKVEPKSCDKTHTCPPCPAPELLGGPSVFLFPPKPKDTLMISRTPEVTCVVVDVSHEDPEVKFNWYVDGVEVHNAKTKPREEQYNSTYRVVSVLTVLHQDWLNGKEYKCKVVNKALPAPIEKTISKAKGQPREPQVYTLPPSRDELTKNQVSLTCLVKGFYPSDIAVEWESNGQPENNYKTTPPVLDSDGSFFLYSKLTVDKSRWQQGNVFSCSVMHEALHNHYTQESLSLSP
light: B1 light
notes: mutation in both H chains; also called Ho Ab S324_03V; S324V
B29: GpH7-A5/GpH7-B3 variant Q295_03V/GpL16-k0 (He Ab) (antibody, human IgG1, kappa)
heavy 1: not shown
heavy 2: not shown
light: B1 light
notes: He Ab: alteration only in the GpH7-B3 chain

What follows are binders tested against T1, FcγRIa extracellular domain with C-terminal His tag (human, UniProt P12314 16-292) (assay: SPR Biacore, relative FcγRIa binding vs GpH7-B3/GpL16-k0).
T1 construct: extracellular domain; also called FcgRI; CD64; not shown: His tag at the C terminus
T1 sequence (P12314 16-292): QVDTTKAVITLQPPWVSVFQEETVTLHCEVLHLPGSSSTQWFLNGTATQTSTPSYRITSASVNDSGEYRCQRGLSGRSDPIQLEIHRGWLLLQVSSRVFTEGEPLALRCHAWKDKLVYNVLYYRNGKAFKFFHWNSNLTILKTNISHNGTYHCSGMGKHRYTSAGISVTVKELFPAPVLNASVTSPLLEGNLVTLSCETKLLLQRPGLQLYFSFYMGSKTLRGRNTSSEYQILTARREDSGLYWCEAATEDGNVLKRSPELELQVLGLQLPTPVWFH
For B1, the Ho/Con_1a was 90.4 % of HoCon Ab (=100).
For B2, the Ho/Con_1a was 101 % of HoCon Ab (=100).
For B3, the Ho/Con_1a was 101 % of HoCon Ab (=100).
For B4, the Ho/Con_1a was 97.9 % of HoCon Ab (=100).
With B5 the Ho/Con_1a was 93.4 % of HoCon Ab (=100).
With B6 the Ho/Con_1a was 102 % of HoCon Ab (=100).
B7 was tested, and the Ho/Con_1a was 108 % of HoCon Ab (=100).
With B8 the Ho/Con_1a was 102 % of HoCon Ab (=100).
B9 was tested, and the Ho/Con_1a was 99.9 % of HoCon Ab (=100).
In the case of B10, the Ho/Con_1a is reported as 106 % of HoCon Ab (=100).
In the case of B11, the Ho/Con_1a is reported as 98.2 % of HoCon Ab (=100).
B12 was tested, and the Ho/Con_1a was 103 % of HoCon Ab (=100).
With B13 the Ho/Con_1a was 106 % of HoCon Ab (=100).
In the case of B14, the Ho/Con_1a is reported as 106 % of HoCon Ab (=100).
With B15 the Ho/Con_1a was 107 % of HoCon Ab (=100).
B16 was tested, and the Ho/Con_1a was 106 % of HoCon Ab (=100).
B17 was tested, and the Ho/Con_1a was 103 % of HoCon Ab (=100).
With B18 the Ho/Con_1a was 104 % of HoCon Ab (=100).
For B19, the Ho/Con_1a was 106 % of HoCon Ab (=100).
In the case of B20, the Ho/Con_1a is reported as 94.5 % of HoCon Ab (=100).
B21 was tested, and the Ho/Con_1a was 106 % of HoCon Ab (=100).
In the case of B22, the Ho/Con_1a is reported as 103 % of HoCon Ab (=100).
With B23 the Ho/Con_1a was 107 % of HoCon Ab (=100).
For B24, the Ho/Con_1a was 104 % of HoCon Ab (=100).
B25 was tested, and the Ho/Con_1a was 105 % of HoCon Ab (=100).
In the case of B26, the Ho/Con_1a is reported as 71.5 % of HoCon Ab (=100).
With B27 the Ho/Con_1a was 103 % of HoCon Ab (=100).
With B28 the Ho/Con_1a was 103 % of HoCon Ab (=100).

These binders were tested against T2, FcγRIa extracellular domain with C-terminal His tag (human, UniProt P12314 16-292) (assay: SPR Biacore, antibody captured, FcγRIa analyte; vs GpH7-A5/GpH7-B3/GpL16-k0 = 100).
T2 construct: extracellular domain; Expressed in FreeStyle293 cells; analyte in Biacore; also called FcgRI; FcgRIa
T2 sequence (P12314 16-292): as above
With B29 the He/Con_1a was 104 relative (control = 100).
